To fix the notation:
B2: STN1 (subunit of purified recombinant human CST) (natural protein, UniProt Q9H668 1-368, looked up)
chain: MQPGSSRCEEETPSLLWGLDPVFLAFAKLYIRDILDMKESRQVPGVFLYNGHPIKQVDVLGTVIGVRERDAFYSYGVDDSTGVINCICWKKLNTESVSAAPSAARELSLTSQLKKLQETIEQKTKIEIGDTIRVRGSIRTYREEREIHATTYYKVDDPVWNIQIARMLELPTIYRKVYDQPFHSSALEKEEALSNPGALDLPSLTSLLSEKAKEFLMENRVQSFYQQELEMVESLLSLANQPVIHSASSDQVNFKKDTTSKAIHSIFKNAIQLLQEKGLVFQKDDGFDNLYYVTREDKDLHRKIHRIIQQDCQKPNHMEKGCHFLHILACARLSIRPGLSEAVLQQVLELLEDQSDIVSTMEHYYTAF
B3: CTC1 (subunit of purified recombinant human CST) (natural protein, UniProt Q2NKJ3 1-1217, looked up)
chain: MAAGRAQVPSSEQAWLEDAQVFIQKTLCPAVKEPNVQLTPLVIDCVKTVWLSQGRNQGSTLPLSYSFVSVQDLKTHQRLPCCSHLSWSSSAYQAWAQEAGPNGNPLPREQLLLLGTLTDLSADLEQECRNGSLYVRDNTGVLSCELIDLDLSWLGHLFLFPRWSYLPPARWNSSGEGHLELWDAPVPVFPLTISPGPVTPIPVLYPESASCLLRLRNKLRGVQRNLAGSLVRLSALVKSKQKAYFILSLGRSHPAVTHVSIIVQVPAQLVWHRALRPGTAYVLTELRVSKIRGQRQHVWMTSQSSRLLLLKPECVQELELELEGPLLEADPKPLPMPSNSEDKKDPESLVRYSRLLSYSGAVTGVLNEPAGLYELDGQLGLCLAYQQFRGLRRVMRPGVCLQLQDVHLLQSVGGGTRRPVLAPCLRGAVLLQSFSRQKPGAHSSRQAYGASLYEQLVWERQLGLPLYLWATKALEELACKLCPHVLRHHQFLQHSSPGSPSLGLQLLAPTLDLLAPPGSPVRNAHNEILEEPHHCPLQKYTRLQTPSSFPTLATLKEEGQRKAWASFDPKALLPLPEASYLPSCQLNRRLAWSWLCLLPSAFCPAQVLLGVLVASSHKGCLQLRDQSGSLPCLLLAKHSQPLSDPRLIGCLVRAERFQLIVERDVRSSFPSWKELSMPGFIQKQQARVYVQFFLADALILPVPRPCLHSATPSTPQTDPTGPEGPHLGQSRLFLLCHKEALMKRNFCVPPGASPEVPKPALSFYVLGSWLGGTQRKEGTGWGLPEPQGNDDNDQKVHLIFFGSSVRWFEFLHPGQVYRLIAPGPATPMLFEKDGSSCISRRPLELAGCASCLTVQDNWTLELESSQDIQDVLDANKSLPESSLTDLLSDNFTDSLVSFSAEILSRTLCEPLVASLWMKLGNTGAMRRCVKLTVALETAECEFPPHLDVYIEDPHLPPSLGLLPGARVHFSQLEKRVSRSHNVYCCFRSSTYVQVLSFPPETTISIPLPHIYLAELLQGGQSPFQATASCHIVSVFSLQLFWVCAYCTSICRQGKCTRLGSTCPTQTAISQAIIRLLVEDGTAEAVVTCRNHHVAAALGLCPREWASLLDFVQVPGRVVLQFAGPGAQLESSARVDEPMTMFLWTLCTSPSVLRPIVLSFELERKPSKIVPLEPPRLQRFQCGELPFLTHVNPRLRLSCLSIRESEYSSSLGILASSC

“And” between values parts separate entries of the source, which are not always exact repeats. Equal values may be shown once.

Data set [1] has as its target B3. The data set can be described thus: cryo-EM structure.
Data set [2] addresses B2. The data set can be described thus: cryo-EM structure.
The data set “cryo-EM structure” concerns the molecule itself. The data set can be described thus: cryo-EM structure.
The data set “negative-stain EM” deals with the molecule itself. The data set can be described thus: negative-stain EM.

B1: TEN1 (subunit of purified recombinant human CST) (natural protein)
chain: MLPKPGTYYLPWEVSAGQVPDGSTLRTFGRLCLYDMIQSRVTLMAQHGSDQHQVLVCTKLVEPFHAQVGSLYIVLGELQHQQDRGSVVKARVLTCVEGMNLPLLEQAIREQRLYKQERGGSQ
Turning to B1, the binding result in data set [1] was “binds”. In addition, the stoichiometry N – broadly, a count of units in the complex or per binding partner – in data set [2] stood at 1.

B2: in data set [1], the “stoichiometry N” value was 1.

Take B3: the binding result in the data set “cryo-EM structure” is “binds”.

B4: human CTC1-STN1-TEN1 (CST) complex, purified recombinant heterotrimer (complex)
chain 1: AAGRAQVPSSEQAWLEDAQVFIQKTLCPAVKEPNVQLTPLVIDCVKTVWLSQGRNQGSTLPLSYSFVSVQDLKTHQRLPCCSHLSWSSSAYQAWAQEAGPNGNPLPREQLLLLGTLTDLSADLEQECRNGSLYVRDNTGVLSCELIDLDLSWLGHLFLFPRWSYLPPARWNSSGEGHLELWDAPVPVFPLTISPGPVTPIPVLYPESASCLLRLRNKLRGVQRNLAGSLVRLSALVKSKQKAYFILSLGRSHPAVTHVSIIVQVPAQLVWHRALRPGTAYVLTELRVSKIRGQRQHVWMTSQSSRLLLLKPECVQELELELEGPLLEADPKPLPMPSNSEDKKDPESLVRYSRLLSYSGAVTGVLNEPAGLYELDGQLGLCLAYQQFRGLRRVMRPGVCLQLQDVHLLQSVGGGTRRPVLAPCLRGAVLLQSFSRQKPGAHSSRQAYGASLYEQLVWERQLGLPLYLWATKALEELACKLCPHVLRHHQFLQHSSPGSPSLGLQLLAPTLDLLAPPGSPVRNAHNEILEEPHHCPLQKYTRLQTPSSFPTLATLKEEGQRKAWASFDPKALLPLPEASYLPSCQLNRRLAWSWLCLLPSAFCPAQVLLGVLVASSHKGCLQLRDQSGSLPCLLLAKHSQPLSDPRLIGCLVRAERFQLIVERDVRSSFPSWKELSMPGFIQKQQARVYVQFFLADALILPVPRPCLHSATPSTPQTDPTGPEGPHLGQSRLFLLCHKEALMKRNFCVPPGASPEVPKPALSFYVLGSWLGGTQRKEGTGWGLPEPQGNDDNDQKVHLIFFGSSVRWFEFLHPGQVYRLIAPGPATPMLFEKDGSSCISRRPLELAGCASCLTVQDNWTLELESSQDIQDVLDANKSLPESSLTDLLSDNFTDSLVSFSAEILSRTLCEPLVASLWMKLGNTGAMRRCVKLTVALETAECEFPPHLDVYIEDPHLPPSLGLLPGARVHFSQLEKRVSRSHNVYCCFRSSTYVQVLSFPPETTISIPLPHIYLAELLQGGQSPFQATASCHIVSVFSLQLFWVCAYCTSICRQGKCTRLGSTCPTQTAISQAIIRLLVEDGTAEAVVTCRNHHVAAALGLCPREWASLLDFVQVPGRVVLQFAGPGAQLESSARVDEPMTMFLWTLCTSPSVLRPIVLSFELERKPSKIVPLEPPRLQRFQCGELPFLTHVNPRLRLSCLSIRESEYSSSLGILASSC
chain 2: QPGSSRCEEETPSLLWGLDPVFLAFAKLYIRDILDMKESRQVPGVFLYNGHPIKQVDVLGTVIGVRERDAFYSYGVDDSTGVINCICWKKLNTESVSAAPSAARELSLTSQLKKLQETIEQKTKIEIGDTIRVRGSIRTYREEREIHATTYYKVDDPVWNIQIARMLELPTIYRKVYDQPFHSSALEKEEALSNPGALDLPSLTSLLSEKAKEFLMENRVQSFYQQELEMVESLLSLANQPVIHSASSDQVNFKKDTTSKAIHSIFKNAIQLLQEKGLVFQKDDGFDNLYYVTREDKDLHRKIHRIIQQDCQKPNHMEKGCHFLHILACARLSIRPGLSEAVLQQVLELLEDQSDIVSTMEHYYTAF
chain 3: LPKPGTYYLPWEVSAGQVPDGSTLRTFGRLCLYDMIQSRVTLMAQHGSDQHQVLVCTKLVEPFHAQVGSLYIVLGELQHQQDRGSVVKARVLTCVEGMNLPLLEQAIREQRLYKQERGGSQ
Turning to B4, the “stoichiometry N” value in “negative-stain EM” is 4 and 2.

Values taken from publication PMC7559292 (Science (New York, N.Y.), 2020).
